Source: the supplement of paper PMC9732359
± gives the uncertainty stated by the source.

Assay: protein stability index of a GFP-peptide fusion (yeast GPS) (PSI 1-4); higher = more stable; sorted into four equal gates, so the index is relative within each strain
In short: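 Tiled 17-residue yeast protein peptides were fused downstream of GFP in a plasmid that also expresses Cherry, and the pooled library was carried in yeast. Mid-log cultures in leucine-free medium were sorted into four equal gates by GFP/Cherry fluorescence ratio, and plasmids from each gate were PCR-amplified and Illumina-sequenced, with reads assigned to strains by barcodes. The protein stability index for each peptide was each gate's read frequency times its gate number, summed.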

| Sequence | protein stability index (doa10∆) | protein stability index (pdr5∆) | protein stability index (san1∆) | protein stability index (ubr1∆) |
| --- | --- | --- | --- | --- |
| IIVFGYPESISNELIEH [YDL088C/ASM4] | 2.12 ± 0.066 | 2.78 ± 0.049 | 2.63 ± 0.058 | 2.75 ± 0.054 |
| GKQIKSTIYNWGDNKLA [YML103C/NUP188] | 2.71 ± 0.17 | 3.18 ± 0.15 | 2.82 ± 0.11 | 2.87 ± 0.1 |
| FDSVIVENLTVAQECIA [SMC1] | 1.69 ± 0.089 | 1.62 ± 0.11 | 1.84 ± 0.15 | 1.27 ± 0.061 |
| GFSPTSPTYSPTSPAYS [RPO21] | 2.81 ± 0.052 | 2.74 ± 0.043 | 2.94 ± 0.051 | 2.39 ± 0.038 |
| SADYEILYEIRALYTPF [YDL116W/NUP84] | 1.86 ± 0.073 | 2.21 ± 0.068 | 2.5 ± 0.07 | 2.06 ± 0.066 |
| SMSGRISAKDMGQGLCN [BRR2] | 3 ± 0.11 | 3.03 ± 0.084 | 3.02 ± 0.076 | 3.19 ± 0.078 |
| LFEIVSNADTNQNSDMK [SRB8] | 2.51 ± 0.29 | 2.87 ± 0.29 | 2.85 ± 0.16 | – |
| LSLQRANVEILAVEDKP [CSL4] | 1.35 ± 0.054 | 1.44 ± 0.061 | 1.67 ± 0.092 | 1.61 ± 0.044 |
| LVQLFLWDSKELEQLVE [RPN3] | 2.64 ± 0.13 | 2.78 ± 0.084 | 2.08 ± 0.28 | 2.85 ± 0.083 |
| VPVANQFINLAGYKKLG [QCR7] | 1.97 ± 0.14 | 2.5 ± 0.13 | 1.94 ± 0.17 | 2.48 ± 0.11 |
| PAGQATQKRTHVLKKNP [RPL4A] | 2.95 ± 0.22 | 3.21 ± 0.21 | 3.28 ± 0.22 | 2.74 ± 0.14 |
| VRTNTLTKAAIVQIDAT [RPS8A] | 2.233 ± 0.022 | 2.54 ± 0.023 | 2.37 ± 0.026 | 2.297 ± 0.019 |
| TELSNKETTIEKLSSEI [YIL149C/MLP2] | 3.03 ± 0.073 | 2.96 ± 0.097 | 3.21 ± 0.072 | 3.13 ± 0.051 |
| LQPVIPGGAASKSVPTP [SNF5] | 2.93 ± 0.13 | 3.28 ± 0.062 | 3.12 ± 0.049 | 3.13 ± 0.053 |
| DWFTYSYFYRRIHVNPS [BRR2] | 1.86 ± 0.047 | 1.28 ± 0.038 | 1.53 ± 0.057 | 1.52 ± 0.029 |
| LSIAFENGDYAACEKLL [RPN12] | 3.13 ± 0.17 | 3 ± 0.12 | 3.16 ± 0.077 | 3.24 ± 0.12 |
| VTDNKTPEMNVTNNVEE [TAF14] | 3.28 ± 0.17 | 3.27 ± 0.12 | 3.35 ± 0.13 | 3.2 ± 0.17 |
| DSSLQPEYFESPLQSSK [YMR129W/POM152] | 3.19 ± 0.2 | 2.98 ± 0.12 | – | 2.56 ± 0.13 |
| RDKAGRLAEVNLKDLNN [RPO21] | 3.15 ± 0.11 | 2.75 ± 0.083 | 2.55 ± 0.086 | 2.79 ± 0.11 |
| FVKKTSEEIDSLNEDVE [SMC2] | 2.97 ± 0.17 | 3.2 ± 0.19 | – | – |
| ELKKYMDKKILLNINGS [SMX2] | 1.88 ± 0.059 | 2.25 ± 0.062 | 2 ± 0.094 | 2 ± 0.045 |
| PFETFDHASIRRGYQVY [CYT1] | 2.68 ± 0.048 | 2.65 ± 0.044 | 2.82 ± 0.047 | 2.9 ± 0.032 |
| FYSKNRLLITGTPLQNN [ISW2] | – | 1.39 ± 0.17 | – | – |
| LLFINSSKLVDVYTLPS [YML103C/NUP188] | 1.97 ± 0.043 | 2 ± 0.05 | 1.98 ± 0.055 | 2.01 ± 0.054 |
| LARDTPSANNSSSIKST [RRP4] | 2.86 ± 0.076 | 2.91 ± 0.057 | 2.97 ± 0.047 | 3.14 ± 0.054 |
| ASTINGASIIQVIFEIF [YML103C/NUP188] | 1.43 ± 0.059 | 1.9 ± 0.054 | 1.95 ± 0.087 | 1.94 ± 0.046 |

| Sequence | protein stability index (doa10∆) | protein stability index (pdr5∆) | protein stability index (san1∆) | protein stability index (ubr1∆) |
| --- | --- | --- | --- | --- |
| VTDKYTAKKTNRSAYDS [YDL088C/ASM4] | 2.81 ± 0.089 | 3.26 ± 0.081 | 2.96 ± 0.14 | 2.79 ± 0.043 |
| LTLKEAELLVLKILKQV [PUP2] | 2.05 ± 0.29 | 2.4 ± 0.26 | – | 1.63 ± 0.25 |
| GRENFVYANNPEVSDDG [SIR3] | 3.05 ± 0.096 | 3.08 ± 0.085 | 2.8 ± 0.1 | 3.03 ± 0.068 |
| TAAEKKERLTKEAAAIA [RPL8B] | 2.15 ± 0.072 | 2.25 ± 0.09 | 1.91 ± 0.11 | 2.33 ± 0.05 |
| AAIWTLCKTKMVCETDV [RPO21] | 1.55 ± 0.059 | 1.69 ± 0.057 | 1.44 ± 0.1 | 1.47 ± 0.034 |
| IDEVFSWYLNTFDGIRM [GRR1] | 2.42 ± 0.049 | 1.83 ± 0.039 | 2.14 ± 0.062 | 1.88 ± 0.039 |
| FIKEIHKSIELISNLLF [YCS4] | 1.89 ± 0.047 | 2.16 ± 0.051 | 2.48 ± 0.052 | 2.46 ± 0.034 |
| KLLDDNPTEFDWPTYVD [SRB8] | 3.11 ± 0.072 | 3.29 ± 0.061 | 3.01 ± 0.042 | 2.99 ± 0.058 |
| NVGKPDQSIASGNTNGA [YOR098C/NUP1] | 3 ± 0.2 | 2.09 ± 0.28 | 2.83 ± 0.085 | 2.93 ± 0.1 |
| YLLTQQQIWKSPNFKNY [SOH1] | 1.73 ± 0.047 | 1.62 ± 0.05 | 1.18 ± 0.081 | 2.19 ± 0.03 |
| KINQERLERRINLTKVT [CSI1] | 1.91 ± 0.062 | 1.96 ± 0.062 | 1.4 ± 0.095 | 1.37 ± 0.045 |
| QQQRRQLTPQQQQLVNQ [GAL11] | 2.72 ± 0.049 | 3 ± 0.05 | 2.8 ± 0.038 | 3 ± 0.049 |
| QSSFAGTWSAKEAVFKS [FAS2] | 2.98 ± 0.078 | 3.23 ± 0.071 | 3.18 ± 0.054 | 2.99 ± 0.058 |
| DEHNELMRQALAIKDSK [RPO21] | 2.61 ± 0.05 | 2.93 ± 0.063 | 2.29 ± 0.058 | 2.91 ± 0.044 |
| KIYKLENGERKLYDAKR [YMR129W/POM152] | 3.13 ± 0.06 | 3.17 ± 0.077 | 3.21 ± 0.065 | 3.29 ± 0.06 |
| IEKNVMESIGSDILTAE [RRP4] | 2.78 ± 0.092 | 3.04 ± 0.19 | 2.95 ± 0.2 | – |
| WNWAKQSLLSLYFEIIH [FAS2] | 1.7 ± 0.06 | 1.46 ± 0.057 | 1.76 ± 0.15 | 1.4 ± 0.072 |
| TDQLIQNIETRQLANLI [NUT1] | 3.15 ± 0.11 | 3.14 ± 0.12 | 2.94 ± 0.13 | 3.01 ± 0.051 |
| ETELPTLSLPDSQDYIL [SMC1] | 3.1 ± 0.043 | 3.19 ± 0.054 | 3.11 ± 0.037 | 3.29 ± 0.055 |
| KKISRLPKFLTVQYVRF [UBP6] | 1.65 ± 0.043 | 1.44 ± 0.041 | 1.28 ± 0.08 | 1.36 ± 0.035 |
| IHSMNENPTPEKGNAKM [SIR3] | 2.94 ± 0.087 | 2.67 ± 0.069 | 3.03 ± 0.059 | 2.87 ± 0.048 |
| VDQGQIYRDRSTFTKHL [ITC1] | 3.2 ± 0.06 | 3.33 ± 0.067 | 3.15 ± 0.042 | 3.15 ± 0.037 |
| YLEELQRKKQSDVLRFL [RPL15A] | 1.38 ± 0.16 | 2.25 ± 0.21 | 1.72 ± 0.26 | 1.5 ± 0.097 |
| LQEKEQLYFKKKVNYKV [ISW2] | 2.96 ± 0.15 | 3.23 ± 0.15 | 3.26 ± 0.23 | 3.48 ± 0.12 |
| AVIAAIMQEAGLRAVRK [RPT3] | – | 1.15 ± 0.19 | – | – |
